# Measurements: patent US20210147523A1 (TEIJIN PHARMA, published 2021)
# Changes are numbered by the printed parent chain.
# T1: mouse SPNS2 (mouse, UniProt Q91VM4 1-549)
# T1 sequence: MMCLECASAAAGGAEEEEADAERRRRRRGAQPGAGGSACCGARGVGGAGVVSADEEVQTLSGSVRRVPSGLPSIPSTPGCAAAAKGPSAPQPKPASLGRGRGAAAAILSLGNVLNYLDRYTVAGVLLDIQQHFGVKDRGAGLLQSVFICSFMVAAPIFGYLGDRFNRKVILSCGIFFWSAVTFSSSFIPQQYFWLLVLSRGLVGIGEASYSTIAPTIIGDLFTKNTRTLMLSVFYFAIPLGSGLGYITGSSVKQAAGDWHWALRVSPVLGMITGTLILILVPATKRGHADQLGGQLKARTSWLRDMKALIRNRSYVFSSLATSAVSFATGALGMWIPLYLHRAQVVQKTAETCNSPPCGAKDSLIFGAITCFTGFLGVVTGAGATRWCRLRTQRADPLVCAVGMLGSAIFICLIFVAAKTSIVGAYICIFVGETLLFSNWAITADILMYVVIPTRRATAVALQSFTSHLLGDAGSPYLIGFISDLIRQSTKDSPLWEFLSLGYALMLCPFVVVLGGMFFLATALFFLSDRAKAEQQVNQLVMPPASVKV
# T2: human SPNS2 K136A mutant (human, UniProt Q8IVW8 1-549)
# T2 sequence: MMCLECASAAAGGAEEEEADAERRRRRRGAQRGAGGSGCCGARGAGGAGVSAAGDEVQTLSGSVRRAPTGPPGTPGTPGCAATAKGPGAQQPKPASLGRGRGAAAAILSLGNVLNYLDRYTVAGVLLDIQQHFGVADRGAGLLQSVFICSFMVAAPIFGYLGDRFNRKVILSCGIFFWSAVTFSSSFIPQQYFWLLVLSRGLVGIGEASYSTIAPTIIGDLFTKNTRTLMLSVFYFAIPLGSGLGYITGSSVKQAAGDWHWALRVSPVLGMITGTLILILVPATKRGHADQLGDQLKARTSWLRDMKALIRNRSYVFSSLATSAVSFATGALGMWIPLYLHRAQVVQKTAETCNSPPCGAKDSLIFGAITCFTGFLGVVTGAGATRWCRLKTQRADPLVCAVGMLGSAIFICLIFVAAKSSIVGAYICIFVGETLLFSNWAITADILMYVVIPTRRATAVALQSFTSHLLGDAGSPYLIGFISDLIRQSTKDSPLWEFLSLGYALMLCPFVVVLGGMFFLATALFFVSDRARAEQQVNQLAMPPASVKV
# T3: human SPNS2 F133A mutant (human, UniProt Q8IVW8 1-549)
# T3 sequence: T2 sequence with F133A, A136K
# T4: human SPNS2 W259A mutant (human, UniProt Q8IVW8 1-549)
# T4 sequence: T2 sequence with A136K, W259A
# B1: 50-0704C (antibody, IgG2b, V domains shown)
# VH: EVQLVGSGGGLVQPGRSMKLSCEASGFTFSNHYMAWVRQAPTKGLEWVATISTGGGNTYYRDSVKGRFTISRDNARSTLSLQMDSLRSEDTATYYCARQDYSNYMGGFAYWGQGTLVTVSS
# VL: QFVLTQPNSVSTNLGSTVKLSCTRSIGNIGNNYVNWYKQYEGRSPTTMIYRDDERPDGVPDRFSGSIDRSSNSALLTINSVQTEDEADYFCQSFSSGIFIFGGGTKLTVL
# B2: 18-0211B (antibody, IgG2b, V domains shown)
# VH: B1 VH with E1A, K43R, A75T, A97T, S102T
# VL: B1 VL with M48L, E86G, K106T
# B3: 89-1207D (antibody, IgG2b, V domains shown)
# VH: B1 VH with T78I
# VL: B1 VL with S80N, I98M
# B4: 83-1110B (antibody, IgG2b, V domains shown)
# VH: EVQLQQSGPEFVRPGTSVKFSCKVSGGSITSYFIHFVKQRPGQGLEWIGKIDPEDDSTKYGEKFKNKATLTADTSSNTAFLKLSSLTSEDTAIYFCTTLTGLDYWGQGVMVTVSS
# VL: DIQMTQSPPVLSAAVGDRVTLSCKASRSLNKNLDWYQQKHGETPKLLIYHTHNLQTGIPSRFSGSGSDTDYTLTISSLQTEDVATYYCYQYHSGWTFGGGTRLELRR
# B5: 37-0511F (antibody, IgG2b, V domains shown)
# VH: EVHLQQSGAALVRPRASVKLSCKVSGDSISRYYVHFVKQRPGQGLEWIGRIDPEDDTTKYSEKFKNRATLTADASSDTASLILSGLTSDDTATYFCSTLTGLDYWGQGVMVTVSS
# VL: DIQMTQSPPVLSTSVGDRVTLRCKPSQNVHSKLDWYQQKHGEAPKLLIYYTHNLQTGIPSRFSGSGSGTDYTLTISSLQPEDVATYYCFQYYSGWTFGGGTKLEMKR
# B6: 94-1311E (antibody, V domains shown)
# VH: EVQLQQSGAGLVRPRTSVRLSCKISGDSITAYYVHFVKQRPGQGLEWIGRIDPEDDSTKYSEKFKNKATLTADVSSSTAYLILSSLTSDDSATYFCSTLTGLDYWGQGVMVTVSS
# VL: B5 VL with T13A, R22S, P25A, N28S, S31N, T69S, Q79R, P80A
# B7: 53-0707E (antibody, IgG2b, V domains shown)
# VH: B5 VH with H3Q, A10E, A16T, S30T, N66K, R67K, D77N, S80Y, L83F, D89E
# VL: B5 VL with P25A
# B8: 80-1104A (antibody, IgG2b, V domains shown)
# VH: EVQLVETGGGLVQPGSSLKLSCSTSGFTFSETWMSWVRQAPGKGLEWVGLIKDKNSNYEANYAESVKGRFTISRDDSKRRVYLQMYTLRDQDTATYYCTSHEDFYYYSSYYFDYWGQGVMVTVSS
# VL: DIVLTQSPATLSVTPGESVSLSCRASQGISTSIHWYQQKSNESPRLLIKYASQSMSGIPSRFSGSGSGTDFTLRINRVESEDFSVYYCQQSYNLPLTFGSGTKLEIKR
# B9: 96-1403F (antibody, IgG2b, V domains shown)
# VH: B8 VH with Q13R, S23A, E31D, G49A, Y58S, V66I, R79S, Y86N, S100R, S109G
# VL: B8 VL with A9P, K39R, M55I, S56A, T72I, R74S, S91T, N93S, S100P, I106V
# B10: 93-1310F (antibody, IgG2b, V domains shown)
# VH: B8 VH with S23A, E31D, G49A, Y86F, Q117H
# VL: B8 VL with E42G, M55I, S91T, N93S, K103R
# B11: 64-0807A (antibody, IgG2b, V domains shown)
# VH: EVQVVESGGGLVQPGRSMKLSCAALGFTFRDYYMAWVRQTPTKGLEWVAAISTGGGNTYYRDSVKGRFTISRDNAKSTLYLQMDSLRSDDTATYYCARNPYGNYFDYWGQGVMVTVSS
# VL: QFVLSQPNSVSTNLGSTVKLSCKRSTGNIGSNYVHWYQRHEGRSPTTLIYRDDKRPNGVPDRFSGSIDRSSNSALLTINNVQTEDEADYFCQSYSGGMYLFGGGTKLTVL
# B12: 84-1111F (antibody, IgG2b, V domains shown)
# VH: B11 VH with Q82K
# VL: B11 VL with L48M, K106T
# How the values were obtained:
# mouse SPNS2 = target: T1, mouse SPNS2; assay: cell-based or functional assay
# human SPNS2 K136A mutant = target: T2, human SPNS2 K136A mutant; assay: flow cytometry
# human SPNS2 F133A mutant = target: T3, human SPNS2 F133A mutant; assay: flow cytometry
# human SPNS2 W259A mutant = target: T4, human SPNS2 W259A mutant; assay: flow cytometry
Binder,"pIC50, S1P transport inhibition (LC-MS/MS of S1P) (mouse SPNS2)",binding ratio vs native type (human SPNS2 K136A mutant),binding ratio vs native type (human SPNS2 F133A mutant),binding ratio vs native type (human SPNS2 W259A mutant)
B1,7.8 pIC50 (M),< 0.5 ratio,< 0.5 ratio,< 0.5 ratio
B2,8.1 pIC50 (M),< 0.5 ratio,–,–
B3,7.8 pIC50 (M),< 0.5 ratio,–,–
B4,8.1 pIC50 (M),–,–,< 0.5 ratio
B5,7.8 pIC50 (M),–,–,< 0.5 ratio
B6,8.2 pIC50 (M),–,–,< 0.5 ratio
B7,7.6 pIC50 (M),–,–,< 0.5 ratio
B8,8 pIC50 (M),< 0.5 ratio,–,–
B9,7.7 pIC50 (M),< 0.5 ratio,< 0.5 ratio,–
B10,8.2 pIC50 (M),< 0.5 ratio,< 0.5 ratio,–
B11,7.7 pIC50 (M),< 0.5 ratio,–,< 0.5 ratio
B12,8.3 pIC50 (M),–,–,–
